Assays:
[1] = molecular target: single chain tissue plasminogen activator, P00750
[2] = molecular target: blood clotting factor VIII, P00451
[3] = molecular target: single chain urokinase plasminogen activator, P00749
[4] = molecular target: T1, blood clotting factor VII, P08709
T1 chain: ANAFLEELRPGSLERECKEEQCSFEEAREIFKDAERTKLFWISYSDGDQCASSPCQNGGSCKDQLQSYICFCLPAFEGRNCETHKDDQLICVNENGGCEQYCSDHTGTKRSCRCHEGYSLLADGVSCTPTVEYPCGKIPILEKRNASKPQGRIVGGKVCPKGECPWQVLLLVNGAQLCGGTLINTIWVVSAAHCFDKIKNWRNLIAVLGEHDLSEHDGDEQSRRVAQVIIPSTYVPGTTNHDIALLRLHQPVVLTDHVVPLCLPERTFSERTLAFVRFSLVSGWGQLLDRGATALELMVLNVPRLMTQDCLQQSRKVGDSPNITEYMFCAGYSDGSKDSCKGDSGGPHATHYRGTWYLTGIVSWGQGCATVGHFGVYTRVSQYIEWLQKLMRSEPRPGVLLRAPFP

[5] = molecular target: blood clotting factor V, P12259
Sequence of blood clotting factor V, P12259 (P12259 29-2224): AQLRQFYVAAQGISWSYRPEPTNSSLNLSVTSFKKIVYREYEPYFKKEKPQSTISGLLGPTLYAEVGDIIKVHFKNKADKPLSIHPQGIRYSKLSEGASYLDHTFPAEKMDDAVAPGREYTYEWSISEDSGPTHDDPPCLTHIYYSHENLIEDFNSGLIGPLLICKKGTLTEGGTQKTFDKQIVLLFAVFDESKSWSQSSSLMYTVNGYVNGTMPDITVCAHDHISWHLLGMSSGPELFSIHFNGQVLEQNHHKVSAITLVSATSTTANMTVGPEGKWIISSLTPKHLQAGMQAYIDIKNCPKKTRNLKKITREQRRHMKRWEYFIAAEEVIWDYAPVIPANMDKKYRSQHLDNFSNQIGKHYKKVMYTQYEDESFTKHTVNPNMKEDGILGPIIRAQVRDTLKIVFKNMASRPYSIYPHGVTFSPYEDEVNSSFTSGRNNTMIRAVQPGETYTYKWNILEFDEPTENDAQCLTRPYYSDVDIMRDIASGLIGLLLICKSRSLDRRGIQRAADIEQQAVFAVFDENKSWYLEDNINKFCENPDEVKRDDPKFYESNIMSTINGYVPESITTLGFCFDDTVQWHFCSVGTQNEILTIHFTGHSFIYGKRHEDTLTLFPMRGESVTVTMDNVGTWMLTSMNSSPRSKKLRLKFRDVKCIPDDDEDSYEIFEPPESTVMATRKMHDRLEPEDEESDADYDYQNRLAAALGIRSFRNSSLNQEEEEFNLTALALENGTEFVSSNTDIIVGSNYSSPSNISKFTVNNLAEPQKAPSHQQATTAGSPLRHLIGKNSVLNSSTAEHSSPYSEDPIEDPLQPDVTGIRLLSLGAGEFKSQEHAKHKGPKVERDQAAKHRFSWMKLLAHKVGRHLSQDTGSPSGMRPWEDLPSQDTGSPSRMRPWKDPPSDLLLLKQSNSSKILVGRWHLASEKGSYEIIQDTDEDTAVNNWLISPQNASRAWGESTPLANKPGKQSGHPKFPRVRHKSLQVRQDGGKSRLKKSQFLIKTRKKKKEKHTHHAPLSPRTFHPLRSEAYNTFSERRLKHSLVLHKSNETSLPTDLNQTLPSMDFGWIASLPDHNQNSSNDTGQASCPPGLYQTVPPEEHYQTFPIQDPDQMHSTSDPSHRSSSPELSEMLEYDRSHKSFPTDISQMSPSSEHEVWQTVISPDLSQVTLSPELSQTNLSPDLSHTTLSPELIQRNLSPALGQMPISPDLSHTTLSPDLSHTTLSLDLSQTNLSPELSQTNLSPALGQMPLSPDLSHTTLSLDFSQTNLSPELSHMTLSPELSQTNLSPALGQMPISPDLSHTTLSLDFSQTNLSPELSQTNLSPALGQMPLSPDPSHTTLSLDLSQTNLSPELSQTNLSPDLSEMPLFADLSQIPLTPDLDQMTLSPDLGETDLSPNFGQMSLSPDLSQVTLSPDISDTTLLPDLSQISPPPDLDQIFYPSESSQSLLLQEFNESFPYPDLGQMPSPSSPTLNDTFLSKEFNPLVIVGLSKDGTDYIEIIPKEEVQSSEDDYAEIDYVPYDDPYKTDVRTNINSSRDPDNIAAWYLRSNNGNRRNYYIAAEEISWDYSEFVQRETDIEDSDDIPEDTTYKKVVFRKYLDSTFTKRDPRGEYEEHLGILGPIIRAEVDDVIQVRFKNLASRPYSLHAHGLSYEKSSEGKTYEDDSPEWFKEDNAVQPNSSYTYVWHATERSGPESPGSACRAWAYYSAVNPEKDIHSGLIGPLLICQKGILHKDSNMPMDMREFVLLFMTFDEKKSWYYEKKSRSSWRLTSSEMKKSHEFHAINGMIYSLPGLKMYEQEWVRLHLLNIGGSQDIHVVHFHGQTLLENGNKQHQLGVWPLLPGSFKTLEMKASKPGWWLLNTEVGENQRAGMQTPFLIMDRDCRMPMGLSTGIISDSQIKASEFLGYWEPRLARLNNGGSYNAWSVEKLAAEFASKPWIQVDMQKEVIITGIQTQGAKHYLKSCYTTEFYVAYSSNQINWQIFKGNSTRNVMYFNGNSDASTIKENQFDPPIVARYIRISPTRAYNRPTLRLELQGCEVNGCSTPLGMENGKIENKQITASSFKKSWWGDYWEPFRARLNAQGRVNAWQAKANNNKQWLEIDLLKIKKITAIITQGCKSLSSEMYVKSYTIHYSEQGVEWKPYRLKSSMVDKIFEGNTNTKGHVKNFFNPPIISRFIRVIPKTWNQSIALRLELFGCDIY

Sequence of blood clotting factor VIII, P00451 (P00451 whole entry, looked up): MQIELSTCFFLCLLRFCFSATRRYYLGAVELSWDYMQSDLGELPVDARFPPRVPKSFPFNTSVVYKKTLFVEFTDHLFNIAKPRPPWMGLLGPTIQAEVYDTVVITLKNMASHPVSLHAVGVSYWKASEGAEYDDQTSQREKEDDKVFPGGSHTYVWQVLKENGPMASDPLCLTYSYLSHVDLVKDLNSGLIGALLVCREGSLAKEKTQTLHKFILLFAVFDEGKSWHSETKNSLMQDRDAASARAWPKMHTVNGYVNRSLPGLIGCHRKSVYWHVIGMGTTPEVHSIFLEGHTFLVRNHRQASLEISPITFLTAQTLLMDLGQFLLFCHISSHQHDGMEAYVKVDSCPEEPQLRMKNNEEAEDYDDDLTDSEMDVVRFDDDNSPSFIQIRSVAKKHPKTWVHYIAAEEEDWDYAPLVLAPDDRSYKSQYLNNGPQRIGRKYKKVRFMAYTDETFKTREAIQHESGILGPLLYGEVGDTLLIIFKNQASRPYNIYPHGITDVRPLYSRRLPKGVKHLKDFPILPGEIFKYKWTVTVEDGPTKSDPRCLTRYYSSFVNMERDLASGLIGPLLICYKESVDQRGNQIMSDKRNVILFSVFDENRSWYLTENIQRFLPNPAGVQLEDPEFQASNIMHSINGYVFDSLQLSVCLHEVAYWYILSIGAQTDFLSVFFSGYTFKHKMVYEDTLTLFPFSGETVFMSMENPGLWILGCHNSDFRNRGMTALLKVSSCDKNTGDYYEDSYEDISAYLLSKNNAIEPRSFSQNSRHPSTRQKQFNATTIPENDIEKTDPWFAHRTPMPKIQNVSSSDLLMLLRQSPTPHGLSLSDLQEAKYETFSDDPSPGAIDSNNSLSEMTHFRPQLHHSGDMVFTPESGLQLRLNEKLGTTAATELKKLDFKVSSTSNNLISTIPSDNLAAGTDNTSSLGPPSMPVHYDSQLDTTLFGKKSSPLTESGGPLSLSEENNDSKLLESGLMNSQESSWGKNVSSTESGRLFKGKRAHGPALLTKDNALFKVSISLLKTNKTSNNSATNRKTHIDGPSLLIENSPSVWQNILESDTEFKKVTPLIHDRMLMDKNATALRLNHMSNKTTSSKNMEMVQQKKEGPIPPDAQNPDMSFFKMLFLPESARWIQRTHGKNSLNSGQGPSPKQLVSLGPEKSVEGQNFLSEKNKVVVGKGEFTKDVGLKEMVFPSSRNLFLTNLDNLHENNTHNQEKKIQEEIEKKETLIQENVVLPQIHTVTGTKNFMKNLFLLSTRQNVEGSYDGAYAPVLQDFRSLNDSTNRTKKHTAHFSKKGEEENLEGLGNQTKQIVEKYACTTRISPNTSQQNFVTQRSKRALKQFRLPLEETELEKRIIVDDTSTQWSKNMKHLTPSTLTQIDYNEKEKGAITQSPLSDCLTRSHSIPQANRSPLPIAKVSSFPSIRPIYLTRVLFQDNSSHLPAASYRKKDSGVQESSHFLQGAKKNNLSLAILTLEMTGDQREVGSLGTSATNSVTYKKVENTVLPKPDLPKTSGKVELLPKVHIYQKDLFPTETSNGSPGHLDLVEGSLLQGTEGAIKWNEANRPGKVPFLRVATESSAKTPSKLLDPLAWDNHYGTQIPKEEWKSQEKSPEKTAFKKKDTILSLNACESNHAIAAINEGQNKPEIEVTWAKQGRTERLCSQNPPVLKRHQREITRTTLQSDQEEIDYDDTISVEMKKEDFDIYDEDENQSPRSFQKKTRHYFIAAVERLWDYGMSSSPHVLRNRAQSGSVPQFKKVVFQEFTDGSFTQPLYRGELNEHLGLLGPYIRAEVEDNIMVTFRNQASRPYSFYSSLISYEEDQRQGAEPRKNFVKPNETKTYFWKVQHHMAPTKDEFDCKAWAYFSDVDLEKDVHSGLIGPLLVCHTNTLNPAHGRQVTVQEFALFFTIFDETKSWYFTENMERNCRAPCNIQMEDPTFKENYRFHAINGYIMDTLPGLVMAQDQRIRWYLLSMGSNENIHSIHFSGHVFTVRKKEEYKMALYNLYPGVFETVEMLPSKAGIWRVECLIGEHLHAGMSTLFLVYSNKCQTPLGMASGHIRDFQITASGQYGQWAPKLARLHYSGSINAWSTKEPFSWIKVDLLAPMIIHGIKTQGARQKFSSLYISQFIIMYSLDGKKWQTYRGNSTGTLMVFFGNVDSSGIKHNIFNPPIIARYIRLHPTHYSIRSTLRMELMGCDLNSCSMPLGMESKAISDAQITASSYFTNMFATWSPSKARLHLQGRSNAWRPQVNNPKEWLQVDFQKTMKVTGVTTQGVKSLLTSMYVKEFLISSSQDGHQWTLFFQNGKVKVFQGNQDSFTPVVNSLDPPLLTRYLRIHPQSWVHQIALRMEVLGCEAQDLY
Sequence of single chain tissue plasminogen activator, P00750 (P00750 36-562): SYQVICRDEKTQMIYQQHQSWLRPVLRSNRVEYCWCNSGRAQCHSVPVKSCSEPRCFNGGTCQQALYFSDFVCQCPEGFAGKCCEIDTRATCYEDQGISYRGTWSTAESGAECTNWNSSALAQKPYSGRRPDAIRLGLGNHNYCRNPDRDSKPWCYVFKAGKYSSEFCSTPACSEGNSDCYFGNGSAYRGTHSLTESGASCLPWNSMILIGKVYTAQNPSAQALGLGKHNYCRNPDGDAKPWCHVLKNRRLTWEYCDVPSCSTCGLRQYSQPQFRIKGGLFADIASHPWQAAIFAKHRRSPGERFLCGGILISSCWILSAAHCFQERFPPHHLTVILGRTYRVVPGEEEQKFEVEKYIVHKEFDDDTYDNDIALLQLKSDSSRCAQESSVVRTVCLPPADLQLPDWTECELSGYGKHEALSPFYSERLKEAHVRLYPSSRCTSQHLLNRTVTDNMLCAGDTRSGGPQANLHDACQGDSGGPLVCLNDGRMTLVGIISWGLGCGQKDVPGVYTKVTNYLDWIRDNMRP

B1: protease for activating the blood clotting factor VII (protein)
chain 1: LLESLDPDWTPDQYDYSYEDYNQEENTSSTLTHAENPDWYYTEDQADPCQPNPCEHGGDCLVHGSTFTCSCLAPFSGNKCQKVQNTCKDNPCGRGQCLITQSPPYYRCVCKHPYTGPSCSQVVPVCRPNPCQNGATCSRHKRRSKFTCACPDQFKGKFCEIGSDDCYVGDGYSYRGKMNRTVNQHACLYWNSHLLLQENYNMFMEDAETHGIGEHNFCRNPDADEKPWCFIKVTNDKVKWEYCDVSACSAQDVAYPEESPTEPSTKLPGFDSCGKTEIAERKIKR
chain 2: not shown
In the case of B1, the PA activity (S-2444), 20 min at 37° C., heparin 100 IU/ml, FVII activator 50 µg/ml [1] is reported as 33.6 Δ mIU/min, the PA activity (S-2444), 20 min at 37° C., heparin 100 IU/ml, FVII activator 100 µg/ml [1] is reported as 51 Δ mIU/min and the PA activity (S-2444), 20 min at 37° C., heparin 100 IU/ml, FVII activator 200 µg/ml [1] is reported as 71.9 Δ mIU/min. The PA activity (S-2444), 20 min at 37° C., stimulant: CaCl2 [1] was 25.3 Δ mIU/min, the PA activity (S-2444), 20 min at 37° C., stimulant: heparin [1] was 63.8 Δ mIU/min and the PA activity (S-2444), 20 min at 37° C., stimulant: none [1] was 5.9 Δ mIU/min. For the same protein, the Resulting PA activity (S-2444), sctPA 100 µg/ml, incubation 1 min (FVII activator concentration not given) [1] was 10.2 Δ mIU/min, the Resulting PA activity (S-2444), sctPA 100 µg/ml, incubation 2 min (FVII activator concentration not given) [1] was 16.8 Δ mIU/min and the Resulting PA activity (S-2444), sctPA 100 µg/ml, incubation 5 min (FVII activator concentration not given) [1] was 38.8 Δ mIU/min. The Resulting PA activity (S-2444), sctPA 100 µg/ml, incubation 10 min (FVII activator concentration not given) [1] was 60.2 Δ mIU/min, the Resulting PA activity (S-2444), sctPA 100 µg/ml, incubation 20 min (FVII activator concentration not given) [1] was 73.3 Δ mIU/min and the FVIII activity (% of control without protease), FVIII essentially free of vWF, protease 10 µg/ml, CaCl2, 0 min [2] was 97%. It also gave an FVIII activity (% of control without protease), FVIII essentially free of vWF, protease 10 µg/ml, CaCl2, 5 min [2] of 27%, an FVIII activity (% of control without protease), FVIII essentially free of vWF, protease 10 µg/ml, CaCl2, 10 min [2] of 11% and an FVIII activity (% of control without protease), FVIII essentially free of vWF, protease 10 µg/ml, CaCl2, 20 min [2] of less than 1%. It also gave an FVIII activity (% of control without protease), FVIII solution containing vWF, protease 10 µg/ml, CaCl2, 0 min [2] of 98%, an FVIII activity (% of control without protease), FVIII solution containing vWF, protease 10 µg/ml, CaCl2, 5 min [2] of 16% and an FVIII activity (% of control without protease), FVIII solution containing vWF, protease 10 µg/ml, CaCl2, 10 min [2] of 14%. The FVIII activity (% of control without protease), FVIII solution containing vWF, protease 10 µg/ml, CaCl2, 20 min [2] was 1%, the “residual active FVIII (chromogenic FVIII test), 10 min, protease 0.1, 1 and 10 µg/ml” value [2] was “As the protease concentration increased, correspondingly more FVIII was inactivated” and the “residual active FVIII (chromogenic FVIII test), protease 10 µg/ml, incubation time varied” value [2] was “A marked reduction in the residual concentration of active FVIII was seen as the length of incubation increased”. For the same protein, the “share of FVIII spared from the protease at calcium below 0.5 mM” value [2] was “the percentage spared is more than 60%”, the “share of FVIII spared from the protease at calcium below 1 mM” value [2] was “approx. 50% of the FVIII is then spared” and the Resulting PA activity (S-2444), no stimulant, 2 min, FVII activator 2 µg/ml [3] was 25 Δ mIU/min. The Resulting PA activity (S-2444), no stimulant, 2 min, FVII activator 5 µg/ml [3] was 60 Δ mIU/min, the Resulting PA activity (S-2444), no stimulant, 2 min, FVII activator 10 µg/ml [3] was 117 Δ mIU/min and the Resulting PA activity (S-2444), no stimulant, 5 min, FVII activator 2 µg/ml [3] was 79 Δ mIU/min. The Resulting PA activity (S-2444), no stimulant, 5 min, FVII activator 5 µg/ml [3] was 179 Δ mIU/min, the Resulting PA activity (S-2444), no stimulant, 5 min, FVII activator 10 µg/ml [3] was 165 Δ mIU/min and the Resulting PA activity (S-2444), no stimulant, 10 min, FVII activator 2 µg/ml [3] was 186 Δ mIU/min. For the same protein, the Resulting PA activity (S-2444), no stimulant, 10 min, FVII activator 5 µg/ml [3] was 449 Δ mIU/min, the Resulting PA activity (S-2444), no stimulant, 10 min, FVII activator 10 µg/ml [3] was 517 Δ mIU/min and the Resulting PA activity (S-2444), stimulant CaCl2, 2 min, FVII activator 2 µg/ml [3] was 255 Δ mIU/min. The Resulting PA activity (S-2444), stimulant CaCl2, 2 min, FVII activator 5 µg/ml [3] was 370 Δ mIU/min, the Resulting PA activity (S-2444), stimulant CaCl2, 2 min, FVII activator 10 µg/ml [3] was 401 Δ mIU/min and the Resulting PA activity (S-2444), stimulant CaCl2, 5 min, FVII activator 2 µg/ml [3] was 338 Δ mIU/min. For the same protein, the Resulting PA activity (S-2444), stimulant CaCl2, 5 min, FVII activator 5 µg/ml [3] was 424 Δ mIU/min, the Resulting PA activity (S-2444), stimulant CaCl2, 5 min, FVII activator 10 µg/ml [3] was 438 Δ mIU/min and the Resulting PA activity (S-2444), stimulant CaCl2, 10 min, FVII activator 2 µg/ml [3] was 416 Δ mIU/min. For the same protein, the Resulting PA activity (S-2444), stimulant CaCl2, 10 min, FVII activator 5 µg/ml [3] was 445 Δ mIU/min, the Resulting PA activity (S-2444), stimulant CaCl2, 10 min, FVII activator 10 µg/ml [3] was 448 Δ mIU/min and the Resulting PA activity (S-2444), stimulant heparin, 2 min, FVII activator 2 µg/ml [3] was 190 Δ mIU/min. The Resulting PA activity (S-2444), stimulant heparin, 2 min, FVII activator 5 µg/ml [3] was 332 Δ mIU/min, the Resulting PA activity (S-2444), stimulant heparin, 2 min, FVII activator 10 µg/ml [3] was 425 Δ mIU/min and the Resulting PA activity (S-2444), stimulant heparin, 5 min, FVII activator 2 µg/ml [3] was 330 Δ mIU/min. The Resulting PA activity (S-2444), stimulant heparin, 5 min, FVII activator 5 µg/ml [3] was 455 Δ mIU/min, the Resulting PA activity (S-2444), stimulant heparin, 5 min, FVII activator 10 µg/ml [3] was 458 Δ mIU/min and the Resulting PA activity (S-2444), stimulant heparin, 10 min, FVII activator 2 µg/ml [3] was 417 Δ mIU/min. The Resulting PA activity (S-2444), stimulant heparin, 10 min, FVII activator 5 µg/ml [3] was 462 Δ mIU/min, the Resulting PA activity (S-2444), stimulant heparin, 10 min, FVII activator 10 µg/ml [3] was 460 Δ mIU/min and the FVII activation factor (x control), protease solution diluted 1:5, 5 min at RT (x times control) [4] was 2.6. It also gave an FVII activation factor (x control), protease solution diluted 1:10, 5 min at RT (x times control) [4] of 2, an FVII activation factor (x control), protease solution diluted 1:20, 5 min at RT (x times control) [4] of 1.6 and an FVII activation factor, 0.2 IU FVII/ml + 1:10 protease solution, incubation 0 min (x times control) [4] of 1. It also gave an FVII activation factor, 0.2 IU FVII/ml + 1:10 protease solution, incubation 2.5 min (x times control) [4] of 1.3, an FVII activation factor, 0.2 IU FVII/ml + 1:10 protease solution, incubation 5.0 min (x times control) [4] of 2 and an FVII activation factor, 0.2 IU FVII/ml + 1:10 protease solution, incubation 10.0 min (x times control) [4] of 2.8. For the same protein, the FVII activation factor, 0.2 IU FVII/ml + 1:10 protease solution, incubation 40.0 min (x times control) [4] was less than 3.8, the “FVIIa content (Staclot FVIIa-rTF test) after protease + FVII, 10 min, then aprotinin” value [4] was 18 mlU of FVIIa/ml and the “FVIIa formed by the action of the protease, after subtracting the base value” [4] was 8 mlU of FVIIa/ml have therefore been formed by the action of the protease. The Residual FV activity, protease 10 µg/ml, incubation 20 min [5] was 100, the Residual FV activity, protease 10 µg/ml, incubation column headed 0 (min) [5] was 93 and the Residual FV activity, protease 10 µg/ml, incubation column headed 0 (min), second column [5] was 91. The Residual FV activity, protease 30 µg/ml, incubation 20 min [5] was 28, the Residual FV activity, protease 30 µg/ml, incubation column headed 0 (min) [5] was 100 and the Residual FV activity, protease 30 µg/ml, incubation column headed 0 (min), second column [5] was 93. The Residual FV activity, protease 100 µg/ml, incubation 20 min [5] was 13, the Residual FV activity, protease 100 µg/ml, incubation column headed 0 (min) [5] was 100 and the Residual FV activity, protease 100 µg/ml, incubation column headed 0 (min), second column [5] was 29.

— patent US20080175878
